From publication PMC9177846, “Targeting parvalbumin promotes M2 macrophage polarization and energy expenditure in mice” (Nature Communications, 2022)

T1: GFP-tagged CSF1R immunoprecipitated from HEK293T cells (UniProt P09581)
T1 sequence: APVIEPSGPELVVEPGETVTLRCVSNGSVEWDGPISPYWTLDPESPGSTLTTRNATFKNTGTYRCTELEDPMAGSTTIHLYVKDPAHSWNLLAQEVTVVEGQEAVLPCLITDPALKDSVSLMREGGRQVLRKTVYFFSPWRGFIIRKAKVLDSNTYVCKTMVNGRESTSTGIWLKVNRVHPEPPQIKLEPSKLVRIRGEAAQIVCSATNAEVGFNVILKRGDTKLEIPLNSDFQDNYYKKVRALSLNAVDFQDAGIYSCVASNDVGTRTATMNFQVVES

T2: GFP-tagged CSF1R immunoprecipitated from HEK293T cells (UniProt P09581 20-298)
T2 sequence: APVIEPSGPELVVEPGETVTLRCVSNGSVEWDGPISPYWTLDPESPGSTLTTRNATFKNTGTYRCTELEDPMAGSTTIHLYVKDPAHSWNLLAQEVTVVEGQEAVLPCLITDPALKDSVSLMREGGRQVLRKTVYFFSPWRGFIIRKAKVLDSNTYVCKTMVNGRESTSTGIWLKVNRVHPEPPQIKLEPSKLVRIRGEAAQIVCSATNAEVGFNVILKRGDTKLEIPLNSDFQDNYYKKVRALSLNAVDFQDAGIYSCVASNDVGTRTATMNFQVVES

T3: CSF1R protein immobilised for SPR (UniProt P09581 20-298)
T3 construct: CSF1R protein used at 30 µg/ml for covalent immobilisation
T3 sequence: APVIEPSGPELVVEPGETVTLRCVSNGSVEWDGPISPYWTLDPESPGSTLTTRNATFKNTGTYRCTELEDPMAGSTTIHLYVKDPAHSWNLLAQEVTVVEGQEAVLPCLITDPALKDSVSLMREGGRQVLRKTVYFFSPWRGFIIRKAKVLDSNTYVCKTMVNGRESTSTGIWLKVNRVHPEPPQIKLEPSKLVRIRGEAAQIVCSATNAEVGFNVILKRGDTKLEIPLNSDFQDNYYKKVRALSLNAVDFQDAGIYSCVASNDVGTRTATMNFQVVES


Tests used:
[1] = molecular target: T1, GFP-tagged CSF1R immunoprecipitated from HEK293T cells
[2] = molecular target: T2, GFP-tagged CSF1R immunoprecipitated …; experiment: cell-based or functional assay
[3] = molecular target: T3, CSF1R protein immobilised for SPR; experiment: SPR; Open SPR (Nicoya); CSF1R (30 µg/ml) covalently immobilised on COOH sensor chip by EDC/NHS; parvalbumin injected from low to high concentrations, 20 µl/min for 5 min; analysed with Trace Drawer; settings: both partners purified

Binder | ELK1-Luc reporter: concentration-response of MCSF on CSF1R activation in cells stably expressing CSF1R (EC50) [1] [nM] | ELK1-Luc reporter: concentration-response of parvalbumin on CSF1R activation in the presence of MCSF (IC50) [2] [nM] | Kd [3] [nM]
Macrophage colony-stimulating factor (ligand) KEVSEHCSHMIGNGHLKVLQQLIDSQMETSCQIAFEFVDQEQLDDPVCYLKKAFFLVQDIIDETMRFKDNTPNANATERLQELSNNLNSCFTKDYEEQNKACVRTFHETPLQLLEKIKNFFNETKNLLEKDWNIFTKNCNNSFAKCSSRDVVTKPDCNCLYPKATPSSDPASASPHQPPAPSMAPLAGLAWDDSQRTEGSSLLPSELPLRIEDPGSAKQRPPRSTCQTLESTEQPNHGDRLTEDSQPHPSAGGPVPGVEDILESSLGTNWVLEEASGEASEGFLTQEAKFSPSTPVGGSIQAETDRPRALSASPFPKSTEDQKPVDITDRPLTEVNPMRPIGQTQNNTPEKTDGTSTLREDHQEPGSPHIATPNPQRVSNSATPVAQLLLPKSHSWGIVLPLGELEGKRSTRDRRSPAELEGGSASEGAARPVARFNSIPLTDTGHVEQHEGSSDPQIPESVFHLLVPGIILVLLTVGGLLFYKWKWRSHRDPQTLDSSVGRPEDSSLTQDEDRQVELPV | 0.36 |  | 
parvalbumin (recombinant protein) (natural protein, UniProt P32848 1-110, looked up, parvalbumin, recombinant; The only source printed for a recombinant parvalbumin is human parvalbumin 15333-H08E (Sino Biological), named for the PBMC experiments only; also called PVALB; rPVLAB; source: recombinant protein) MSMTDVLSAEDIKKAIGAFAAADSFDHKKFFQMVGLKKKNPDEVKKVFHILDKDKSGFIEEDELGSILKGFSSDARDLSAKETKTLLAAGDKDGDGKIGVEEFSTLVAES |  | 3.26 | 3650
